From the nanobody polyreactivity screen of Harvey et al. (2022)

Assay: yeast display, Sf9 membrane polyspecificity reagent, FACS + sequencing; frameworks hold sequencing errors
In short: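 A synthetic nanobody library was expressed on Saccharomyces cerevisiae BJ5465 by galactose induction for 36–48 hours. The library was stained for 1 hour at 4 °C with 10% biotinylated, detergent-solubilized Sf9 membrane reagent and enriched with streptavidin microbeads before FACS. Low and high (top ~1%) gates were set on anti-HA fluorescence for expression and streptavidin fluorescence for reagent binding, and each polyreactivity label reflects the gate of origin.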

Sequence	polyreactivity (PSR sort gate)
QVQLVESGGGLVQAGGSLRLSCAASGRILAAYTMGWYRQAPGKERELVAAITRGGSRTNYADSVKGRFTISRDNAKNTVYLQMNSLKPEDTAVYYCAATWSAYRRWGYDYWGQGTQVTVSS	high polyreactivity
QVQLVESGGGLVQAGGSLRLSCAASGNIFLFYVMAWYRQAPGKERELVAAITLSGTNTYYADSVKGRFTISRDNAKNTVYLQMNSLKPDDTAVYYCAAEPKTYDWYPWGQVIENYWGQGTQVTVSS	low polyreactivity
QVQLVESGGGLVQAGGSLRLSCAASGRTFTYYAMGWYIQAPGKEREFVASISLSGGRTYYADSVKGRFTISRDNAKNTVYLQMNSLKPEDTAVYYCNAYYPRVDRYDYWGQGTQVTVSS	low polyreactivity
QVQLVESAGGLVQEGGSLRLSCAASGSTFGDNAMGWYSQAPGKERELVAAITSVGTTYYADSVKGRFTISRDNAKNTVYLQMNSLKPEDSAVYDCNADWSWYNYYDFDYWGQGTQVTVSS	low polyreactivity
QVQLVESGGGLVQAGGSLRLSCAASGLTFTNYAMGWYRQAPGKERELVAAISRSGARTYYADSVKGRFTISRDNAKNTVYLQMNSLKPEDTAVYYCATRYLSRGVYNYDYWGQGTQVTVSS	high polyreactivity
QVQLGESGGGLVQAGGSLRLSCAASGFIFSYNAMGWYRQAPWKERELVAAISWRGGSTYYADSVKGRFTISRDNAKNTVYLQMNSLKPEDTAVYYCAAYLWRLWPSGYYYWGQGTQVTVSS	high polyreactivity
PDQLVESGGGLVQAGGSLRLSCAASGRIFGTNAMGWYRQAPGKERELVADITSGGSTNYADSVKGRFTISRDNAKNTVYLQMNSLKPEDTAVYYCAADVIGDLRWYRDEYWGQGTQVTVSS	low polyreactivity
QVQLVESGGGLVQAGGSLRLSCAASGSTIYYYALGWYRQAPGKERELVAAISWSGASTFYADSVKGRFTISRDNAKNTVDLKMNSLKPVDTAVYYCAAVIKGWGQGTQVTVSS	high polyreactivity
QVQLVESGGGLVQAGGSLRLSCAASGSTFTLYAMGWYRQAPGKERELVAAISWSTTSTYYADSVKGRFTISRDNAKNTVYLQMNSLKPEDTAVYYCAAELYRAEYDYWGQGTQVTVSS	high polyreactivity
QVQLVESGGGLVQAGGSLRLSCAASGRIFRYYAMGWYRPAPGKERELVAAITRSGGITYYADSVKGRFTISRDNAKNTVYLQLNSLKPEDTAVYYCAVRGAGWPSVRAFGYDYWGQGTQVTVSS	high polyreactivity
QVQLVESGGGLVQAGGSLRLSCAASGITFFQYAMGWSRQAPGKERELVAAISRSGSRTYYADSVKGRFTISRDNAKNTVYLQLNSLKQEDTAVYYCAAARVNDHYGYYRQMNYWGQCTQVTVSS	high polyreactivity
QVQLVESGGGLVQAGGSLRLSCAASGIIFRPYAMGWYRQAPGKERELVAAISRGGRTKYADSVKGRFTISRDNAKNTVYLQMNSLKPEDTAVYYCAAQFRFTRLVGVAAEYDYGGQGTQVTVSS	low polyreactivity
QVQLVESGGGLVHAGGSLRLSCAASGSIFKYYAMGWYRQAPGKERELVAAISSGGSTNYADSVKGRFTISRDNAKNTVYLQMNSLKPEDTAVYYCAVDRYCWLDGYDYWGQGTQVTVSS	high polyreactivity
QVQLVESGGGLVQAGGSLRLSCAASGRIFRYYVMGWYRQAPGKEREFVASISGRGASTYYADSVKGRFTISRDNAKNTVYLQMNSLKPEDTAVYYCNADVWLLSYFPEYDYWGQGTQVTVSS	low polyreactivity
QVQLVESGGGLVQAGGSLRLSCAASGSIFLYYAMGWYRQAPGKERELVASISSGGSTNYADSVKGRFTISRDNAKNTVYLQMNSLKPEDTAVYYCAARPYGGGRRSIYYYWGQGTQVTVSS	high polyreactivity
QVQLVESGGGLVQAGGSLRLSCAASGSTFRSYGMGWYRQAPRKERELVAGISVSGGRTSYADSVKGRFTISRDNAKNTVYLQMNSLKPEDTAVYYCAARRSKVGYHRDYYWGQGTQVTVSS	high polyreactivity
QVQLVESGGGLVQAGGSLRLSCAASGLIFYGNAMGWYRQAPGKERELVADITGSSVRTYSADSVKGRFTISRDNAKNTVYVQMNSLNRKIPRSITALNVSCTSVVVGYDYWGQGTQVTVSS	low polyreactivity
QVQLVESGGGLVQAGGSLRLSCAASGSIITHNTMGWYRQAPGKERELVDSIDSGASTNYADSVKGGFTISRDNAKNTVYLQMNSVKPEDTAVYYCAADVAKFRYRDDYWGQGTQVTVAS	low polyreactivity
QVQLVESGGGLVQAGGSLSLSCAASGRTFTPNVMGWYRQAPGKERELVAGISSTGGSTYYADSVKGRFTISRDNAKNTVYLHMNSLKPEDTAVYYCAKEYYDGYFPTFDYDYWGQGTQVTVSS	low polyreactivity
QVQLVESGGGLVQAGGSLRLSCAASGSIFRNYAMGWYRQAPGKERELVAAITSIGGGTYYADSVKGRFTISRDNAKNTVYLQMNSLKPEDTAVYYCAAVSGPFVQTSGNGEYDYWGQGTQVTVSS	low polyreactivity
QVQLVESGGGLVQAGGSLRLSCAASGLTFWAYFMGWYRQAPGKEREFVAAITLSSGSTYYADSVKGRFTISRDNEKNTVYLQMNSLKPEYTAVYYCAATRDYGYWMYSWGQGTQGTVSS	high polyreactivity
QVQLVESGGGLVQAGGSLRLSCAASGRPFPFNAMGWSRQAPGKDRELVAAISGRGGSTYYADSVKGRFTISRDNATNTGSLQRNSQKPEDTAVDYCAARLPWSYYRTQGYNSWGQGTQGTVSS	high polyreactivity

Sequence	polyreactivity (PSR sort gate)
QVQLVESGGGLVQAGCSLRLSCAASGSIFRAYAMGWYRHAPGKERELVAGISGSGGSTYYADSVKGRFTISRDNAKNTVYLQMNSLKPQDTAVYYCAKALSTYQRTGCYDYWGQGTQVTVSS	high polyreactivity
QVQLVESGGGLVQAGGRLRLICAASGSTFVINDMGWYRQAPGKERELVASISWSGGDTYYADSVKGRFTISRDNAKNTVYLQMNSLKPEDTAVYYCNRVSPYGSYDYWGQGTQVTVSS	low polyreactivity
QVQHVESGRGLVQAGVSLRLSCAASGIFFGAYAMGWYRQAPGKEREFVAAISRSGGSTYYADSVKGRFTISRDYAKNTVYFQKNSLKPEDSAVYYCNALAKYHYYLGQGTQVTVSS	high polyreactivity
QVQLVESGGGLVQAGGSLRLSCAASGRILSHYAMGWYRQAPGKERELVASISGSDGSTYYADSVKGRFTISRDNAKNTVYLQMNSLKPEDTAVYYCAVDSYQTGVYFYYVYWDFDLGYWGQGTQVTVSS	low polyreactivity
QVQLVESGGGLVQAGGSLRLSCAASGSIFRYYAMGWYRQAPGKERELVAAITASSGNTYYADSVKGRFTISRDNAKNTVYLQMNRLKPEDTSVYYCSKQPGISYRHYDYWGLGTQVTVSS	high polyreactivity
QVQLVESGGGLVQAGGSLRLSCAASGSIFWSYAMGWYRQATGKERELVAAITWSGGNTYADSVKGRFTISRDNAKNTVYLQMNSLKPEDTAVYYCAADPAHGTKWYVYPSHDDYWGQGTQVTVSS	low polyreactivity
QVQLLESGGGLVQAGGSLRLSCAASGYIFLRNAMGWYRQAPGKERELVAAIRRTGGSTYYADSVKGRFTISRDNAKNTVYLQMNSLKPEDTAVYYCAKRSYTGYEYWGQGTQVTVSS	low polyreactivity
QVQLVESGGGLVQAGGSLRLSCAASGIIFGYNAMGCYRQAPGKERELVASIDVSGGITYYADSVKGRFTISRDNAKNTVYLQMNSLKPEDTAVYYCAAYRYGSRYGYEYWGQGTQVTVSS	high polyreactivity
QFQLVESGGGLVQAGGSLRLSCAASGRIFASIGMGWYRQAPGKEREFVAAINRSGGSTYYADSVKGRFTISRVNAKNSVYLQMNSLKPEDTAVYYCNKDYLYSYLWGWKVYSYDYWGQGTQVTVSS	low polyreactivity
QVQLVVSGGGLVQAGGSLRLSCAASGYIFDYNAMGWYIQSPGKERELVAAINWSGGSTYYADSVKGRFTISRDNAKNTVYLQMNSLKPEDTAVYYCNKLIYGIYYPERYAYDYWGQGTQVTVSS	low polyreactivity
QVQLVESGGGLVHAGGSLRLSCAASGFTFAYNAMGWYRQAPGKERELVAAIRRRGGITYYADSVKGRFTISRDNAKNTVYLQMNSLKPEDTAVYYCNAVRSYPAGYDSWGQGTQVTVSS	low polyreactivity
QVQLVESVGGLVQAGGSLRLSCAASGSIFHYNALGWYRPAPGKERELVAAITSGGSTYADSVKGRFTISRDNAKNTVYLQMNSLKPEDTAVYYCNADSVGPRGDLGYWGQGTQVTVSS	low polyreactivity
QVHLVESWGGLVQAGGSLRLSCAASGRTFWKYAMGWYRQAPWKDRVLVAAITASGARTYYADSVKGRFSISRDNGKNTVYLQMNSLKPEDTSVYYCNAGSVSDRQMDYWGQGTQVTVSS	low polyreactivity
QVQLVESGGGLVQAGGSLRLSCAASGFTFRGYAMGWYRQAPGKERELVAAITAGGGSTSYADSVKGRFTISRDNAKNTVYLQMNSLKPEDTGVYYCARRPGTRTYLSKWGSKYDYWGQGTQVTVSS	high polyreactivity
QVQLVESGGGLVQAGGSLRLSCAASGRIFKYYSMGWYRQAPGKERELVAAITRGGSTNYADSVKGRFTISRDNAKNTFYLQMKSLKTEDTEVYYCAVDTVRNHLMDYWGQGNQVTVSS	low polyreactivity
QVQLVESGGVLVQAGGTLRFSCAPSGLTFVYYTMRWYRQAPGQEREFVAGIDWSGGSTYYADSVKGRFTISRDNAKNTVYLHMNSLKPEDTAVYYCAAAVYYQYCVYRHDYWGKGTQVTVSS	low polyreactivity
QVQLVESGGGLVQAGGSLRLSCAASGLTFVRYTMGWYRQAPGKVRELVAAITWSGGSTYYADSVKGRFTISRDNAKNTVYLQMNSLKPQDTAVYYCAARHRYWYGVTVDYWGQGTHVTVSS	high polyreactivity
QVQLVESGGGLVQAGGSLRLSCAASGSIFPSYAMGWYRQAPGKERELVATISGSGTSTYYADSVKGRFTISRDNAKNTVYLQMNSLKPEDTAVYYSAADPWLGTGRYDYWGQGTQVTVSS	low polyreactivity
QVQLVESGGGLVQAGGSLRLSCDASGSIFILYAMGWYRQAPGKERELVAGITLSTGTTSYADSVKGRFTISRDNAKNTVYLQMNSLKPVDTAVYYCNAVPSQHDEFDYWGQGTQVTVSS	low polyreactivity
QVQLVESGGGLVQAGGSLRLSCAASGRTFYRNDMGWYRQEPGKEREFVAAITSSGGTTYADSVKGRFTISRDNAKNTVYLQMNSLKPEDTAVYYCNTVLYPYWQWDYEFDYWGQGTQVTVSS	low polyreactivity
QVLLVEAGGGLVHAGGSLRLSCAASGLIFGYYAMRWYRQAPWKERELVAAISFSGGSSYYADSVKGRFTISRDNAKNTDSLQMNSLKPEDTAVYYCAADLDGSSEYEYWGQGTQVNVSS	low polyreactivity
